Target: His6-DDA1 (full-length human DDA1) (human, UniProt Q9BW61 1-102)
Assay: crystal structure

B1: DCAF15_(split) (Strep II Avi-DCAF15 NTD residues 30-264 with Strep II Avi-DCAF15 CTD residues 383-600) (domain or fragment)
chain 1: GRRREHVLKQLERVKISGQLSPRLFRKLPPRVCVSLKNIVDEDFLYAGHIFLGFSKCGRYVLSYTSSSGDDDFSFYIYHLYWWEFNVHSKLKLVRQVRLFQDEEIYSDLYLTVCEWPSDASKVIVFGFNTRSANGMLMNMMMMSDENHRDIYVSTVAVPPPGRCAACQDASRAHPGDPNAQCLRHGFMLHTKYQVVYPFPTFQPAFQLKKDQVVLLNTSYSLVACAVSVHSAGDR
chain 2: EPGYVNYTKLYYVLESGEGTEPEDELEDDKISLPFVVTDLRGRNLRPMRERTAVQGQYLTVEQLTLDFEYVINEVIRHDATWGHQFCSFSDYDIVILEVCPETNQVLINIGLLLLAFPSPTEEGQLRPKTYHTSLKVAWDLNTGIFETVSVGDLTEVKGQTSGSVWSSYRKSCVDMVMKWLVPESSGRYVNRMTNEALHKGCSLKVLADSERYTWIVL
Does B1 bind?
Result: binds

From PMC6917914 (Nature chemical biology, 2019)
